Assay results published in the DeepSol protein solubility set.

Test: soluble on expression in E. coli; label from the status in PepcDB or PDB records

| Sequence | soluble on expression in E. coli |
| --- | --- |
| GHMKLKTKTMEWSGNSLKLLDQRKLPFIEEYVECKTHEEVAHAIKEMIVRGAPAIGVAAAFGYVLGLRDYKTGSLTDWMKQVKETLARTRPTAVNLFWALNRMEKVFFENADRENLFEILENEALKMAYEDIEVNKAIGKNGAQLIKDGSTILTHCNAGALATVDYGTALGVIRAAVESGKRIRVFADETRPYLQGARLTAWELMKDGIEVYVITDNMAGWLMKRGLIDAVVVGADRIALNGDTANKIGTYSLAVLAKRNNIPFYVAAPVSTIDPTIRSGEEIPIEERRPEEVTHCGGNRIAPEGVKVLNPAFDVTENTLITAIITEKGVIRPPFEENIKKILEVGS | soluble |
| MSLEQPGFKLRAVTIHFEASADVDSIEDAVFKAKEAIDRLTAEKGVEVWSLRAVLTPGESVADSLGRVAELEPLVEEEGVFINLGLHNASADDWEAVSGIVESGFFLSFALENGTWEEARSYSKLLHRLADKSPDLAVHIGFNPLGTHILTPYFPLATSPGEQRTVTVALLYPRYLLESFRKGGLQAVIDSMVDAAQLSGEYGKAVAKDVEGSFAGVDLSISPWMEESSLALVEEVGGVRLPEPGFAYGLRLVNEAIAAAASKTGYAVGFNEVQLPVAEDSKLKVRVAELETSARDLLRLSGVCLAGLDMAVIPASLDGVAGLLLEARAYSRAKGSIVGVRLIPLDGVEPGDEVFLKRFGEVPVIPIEGHHHHHH | not soluble |
| MGSDKIHHHHHHMTKEASRPALDLARQAYEAFKARGLNLNMQRGQPADADFDLSNGLLTVLGAEDVRMDGLDLRNYPGGVAGLPSARALFAGYLDVKAENVLVWNNSSLELQGLVLTFALLHGVRGSTGPWLSQTPKMIVTVPGYDRHFLLLQTLGFELLTVDMQSDGPDVDAVERLAGTDPSVKGILFVPTYSNPGGETISLEKARRLAGLQAAAPDFTIFADDAYRVHHLVEEDRAEPVNFVVLARDAGYPDRAFVFASTSKITFAGAGLGFVASSEDNIRWLSKYLGAQSIGPNKVEQARHVKFLTEYPGGLEGLMRDHAAIIAPKFRAVDEVLRAELGEGGEYATWTLPKGGYFISLDTAEPVADRVVKLAEAAGVSLTPAGATYPAGQDPHNRNLRLAPTRPPVEEVRTAMQVVAACIRLATEEYRAGH | not soluble |
| MNAADRVMQSYGRCCASTGFFDDFYRHFLASSPQIRAKFATTDMTAQKHLLRAGIMNLVMYARGMSDSKLRALGASHSRAALDIRPELYDLWLDALLMAVAEHDRDCDAETRDAWRDVMGRGIAVIKSYY | soluble |
| AIAGSVNSRGHKAEAQVVMMGLDSAGKTTLLYKLKGHQLVETLPTVGFNVEPLKAPGHVSLTLWDVGGQAPLRASWKDYLEGTDILVYVLDSTDEARLPESAAELTEVLNDPNMAGVPFLVLANKQEAPDALPLLKIRNRLSLERFQDHCWELRGCSALTGEGLPEALQSLWSLLKSRSCMCLQARAHGAERGDSKRS | soluble |
| MEAYNVQNLYQCLNCDDYHLCNGSLNCDPLVDREGIVCTVTGKYIQCNVRELEHHHHHH | soluble |
| MADILLLDNIDSFTYNLVDQLRSSGHRVVIYRNHIAADNIIERLQQLEQPVLMLSPGPGTPAQAGCMPELLQRLQGQLPMIGICLGHQAIIEAYGGHVGQAGEILHGKASAIEHDGQGMFAGMPNPLPVARYHSLVGSNLPAELTVNARFGEMVMAVRHDAHRVCGYQFHPESILTTHGARLLEQTLAWALA | not soluble |
| MSLTVIIKSMETPEEIEGKSLVHWQTWRESYDDLLPAEFQDTMTLERCRFFSQKYPENTLIAMDGVKVVGFISYGNFRDETIQAGEIIALYVLKDYYGKGIAQKLMKAALTALNHFSEIFLWVLKDNKRAIAFYQKMGFTFDGQEKILELGKPIKEKRMVFYSKEGHHHHHH | soluble |
| AHHHHHHGSGKTGIEYFDNFILKDGFPDGSLILVAGEPGAGKTIFSATYLYNGAKKFGEKGVYISLAETKREFYEAMKQLGMDFEELEKKGLFRFIDLVTVSRGAIEKEIQFLMSEISSFQPKRVVIDSISVFAQILGLEKTRVFLHTMLGRFIKAYNATALLIAEKPMGSKTIGHGVEEFVVDGVIILKYKSLGEITRRVMEIPKMRRRSVERAEYEYVITKNGIEFLELPDLVRDKGEYTLEKITTGIEKLDKMLDGGYTRDQMF | soluble |
| STFQFNFTIEDHLENELTPIRDGALTLDSSKELSVSESQKGEERDRKCSAEQFDLPQDHLWEHKSMENAAPSQDTDSPLSAASSSRNLEPHGKQPSLRAAKEHAMPKDLKKMLENKVIETLPGFQHVKLSVVKTILLKENFPGENIVSKSFSSHSDLITGVYEGGLKIWECTFDLLAYFTKAKVKFAGKKVLDLGCGSGLLGITAFKGGSKEIHFQDYNSMVIDEVTLPNVVANSTLEDEENDVNEPDVKRCRKPKVTQLYKCRFFSGEWSEFCKLVLSSEKLFVKYDLILTSETIYNPDYYSNLHQTFLRLLSKNGRVLLASKAHYFGVGGGVHLFQKFVEERDVFKTRILKIIDEGLKRFIIEITFKFPG | not soluble |
| MGSDKIHHHHHHMAYIIPSDISAAALAGAHGPELETLAGLKTALSSDYTVYHGVHWSYDYRGQIRFGEADFVVVNQAGEMVVIEQKNGRLEDTAEGLIKVYGNTRKDVQSQVRRSVENIREKMRAASGSPPPSIDYLIYCPDHRLVRLNAVGLDVSRIVSGATPADLAGRIRQILPPGSKGGATENVHAFLRDAFQVVADVHAHVKAHERSYTRLIGGIADIVDSIEMAPLRLRLRGAPGSGKTVVAHRLYERALARGRRPLMVCFNHPLAERLAASVSPGGRVTTWHGLCVNFLAERGLKPNFEDAARNRSFWPDLAELIIAEPVPDAWRFDTLIVDEGQDFEPGWIDILHLFLTDAADIVWLEDPAQELRGIGRNELPGFVGLSVRTNYRTPQSIARFVKRALGADFVAANDLPGLGVGVSTYGLEDEQAVHLSRIVPALVRQGFAPDQIVIVTLKGATTSVLSQMTRIGTHEVSHFTGAYGDDGRQVRSRGLIRFESVQRFKGQQAPAVIVVDVNPASDPNKAERHLRQLFSAFTRATIRLEILAQKDNPMTARLLGSL | not soluble |
| MSLQSKEDFIEMRVPASAEYVSLIRLTLSGVFSRAGATYDDIEDAKIAVSEAVTNAVKHAYKENNNVGIINIYFEILEDKIKVVISDKGDSFDYETTKSKIGPYDKDENIDFLREGGLGLFLIESLMDEVTVYKESGVTISMTKYIKKEQVRNNGERVEISEGHHHHHH | soluble |
| MLKRRRFHVHFGWILFHCQDCMRHEEGSEESESSFTEMVAEELKLREAQAQEDEWRADRLLLDAKKAASQYQKEADKCSMGMETCELAREKAEAALDEQRRLSYMWELRARQGGWKEGTVASDVI | soluble |
| MDFKQHIAIVPDYPKEGIVFKDITPLMNDGKAYKAATDAIVEYAKERDIDLVVGPEARGFIIGCPVSYALEVGFAPVRKLGKLPREVITVDYGKEYGKDVLTIHKDAIKPGQRVLITDDLLATGGTIEATIKLVEELGGVVAGIAFLVELTYLDGRKMLDGYDVLVLEKY | not soluble |
| MKLDDLNLFRQVVENGSYTAASRKTLIPVATITRRIQALEDSLDIRLLNRHARKLSLTEAGQKFYDECAPILATLVNTSEYLGEECRGAAGKLKIAAPSNLTKRMIQPILNKFMLLYPDISINLTMSNQPEQLDPTDWDIIFRVGKQRDSSLIARQIGSLEDILVASPSYLEKNSEPTHAQELHKHSLLKGNPLMRWRLTNKDGESVTITDAGRFEASELNVIRMACSNGLGITLMPDIMISQYLEEGSLIRVLSDWSANPRDIYMIYNYKDHQPEKVRLFIDFVSNHIPD | not soluble |
| GMTYQALMFDIDGTLTNSQPAYTTVMREVLATYGKPFSPAQAQKTFPMAAEQAMTELGIAASEFDHFQAQYEDVMASHYDQIELYPGITSLFEQLPSELRLGIVTSQRRNELESGMRSYPFMMRMAVTISADDTPKRKPDPLPLLTALEKVNVAPQNALFIGDSVSDEQTAQAANVDFGLAVWGMDPNADHQKVAHRFQKPLDILELFK | soluble |
| MDIGDHGTHCAGIIAGFGPNVKIASLKHLSGNKFKDLDNWVSTMIKAINYADAMDIKIVNVSLGLHKSQIGDRPFDSQALNDAISNADLLFVTAAGNFNKNIDLPDDVIYPASCTAENIITVANTDKDDKLYESSNYGVISVDLAAPGTDIRSTIPTHLAGEGGPYDIKTGTSMSAPHVAGAAALLLSSNPSLTTQQLKDLILSSVDFLPDLQGKVATSGRLNVAKALRKIRTSVKIGDIDGNGEISSIDYAILKSHLINSNLTFKQLAAADVDGNGYVNSIDLAILQMYLLGKGGTSDIGKNRIYTYGDIDNNGIVDENDYILICNHINGTGQLSDASLFAADADGNNVIDQTDRILIEKYITGRITHLPVGNQ | not soluble |
| MGSDKIHHHHHHMRILGIETSCDETGVAIYDEQRGLIANQLYSQIEMHADYGGVVPELASRDHIRKTLPLIQAALKEANLTASEIDGIAYTAGPGLVGALLVGATIARALAYAWNVPALAVHHMEGHLMAPMLEENPPEFPFIALLISGGHTQLIKVAGVGEYEILGESIDDAAGEAFDKTGKLLGLDYPAGVALSQLAEKGTPNRFVFPRPMTDRPGLDFSFSGLKTFAANTINAQLDENGQLNEQTRCDIAHAFQQAVVDTIIIKCKRALQQTGYSRLVMAGGVSANKQLRAELATMMQALKGQVYYPRPQFCTDNGAMIAYTGFIRLKKGEKTDLSVSVKPRWPMTTLLKLSAHHKV | not soluble |
| MTAGLHHAAANGVRVRPFRRHPTKRYILTGAPGAGKTVLLRALETAGEVVVEEAATDVIALAQAQGVDQPWTDPGFIDTIVGLQRQRQTRAVGDRIFFDRSPVCALALARFLGHPVSALLEDELARIVREGVYQRRVFLVQGLGFITPTAARRISLDDAQAFEEVHQAAYTELGFELAPIAPGPVGDRVRRVLGAVLEHHHHHH | not soluble |
| MGKFSNQKKNRVKNKVAVTVKKAQRMKADAKNAKKDGEVDVEMKEEVVRVRGLAVSSLKKLASGELQNVPKVNEKKIIRKTELPVRENKKILDAPTGKRGTTAQYITKKKAKKMYKKMTHDARDKYRKIQAELAGDGEDDEEGEAEVMEQ | not soluble |
| VQLQQSGPVLVKPGGSVKMSCKASEYTLTSYLFQWVKQKSGQGLEWIGYIYPYNGGTRYNEKFRGKATLTSDKSSNTAYLELSSLTSEDSAVYYCARSSMSDPGANWGPGTLVTVSSASTKGPSVFPLAPSSKSTSGGTAALGCLVKDYFPEPVTVSWNSGALTSGVHTFPAVLQSSGLYSLSSVVTVPSSSLGTQTYICNVNHKPSNTKVDKKVEP | soluble |
| MASMKKSTENESTNYQYKIQELRKLLKSLLLNYLELIGVLSINPDMYERKVENIRTILVNIHHLLNEYRPHQSRESLIMLLEEQLEYKRGEIREIEQVCKQVHDKLTS | soluble |
| MEKTLETVPLERKKREKEQFRKLFIGGLSFETTEESLRNYYEQWGKLTDCVVMRDPASKRSRGFGFVTFSSMAEVDAAMAARPHSIDGRVVEPKRAVAREESG | soluble |
| MTKEKLSWLQQKMLNKSIKKKCQNFRELGYSSINEEDLLTYLLTYRWKKQTHLSVKDCRKDIHKVKPNEFFDYQQLLAQTSKNPLRDWHDIEDLF | not soluble |
